Key:
KaiC = target: T1, KaiC (S. elongatus, UniProt Q79PF4 1-519); assay: fluorescence polarisation
T1 sequence: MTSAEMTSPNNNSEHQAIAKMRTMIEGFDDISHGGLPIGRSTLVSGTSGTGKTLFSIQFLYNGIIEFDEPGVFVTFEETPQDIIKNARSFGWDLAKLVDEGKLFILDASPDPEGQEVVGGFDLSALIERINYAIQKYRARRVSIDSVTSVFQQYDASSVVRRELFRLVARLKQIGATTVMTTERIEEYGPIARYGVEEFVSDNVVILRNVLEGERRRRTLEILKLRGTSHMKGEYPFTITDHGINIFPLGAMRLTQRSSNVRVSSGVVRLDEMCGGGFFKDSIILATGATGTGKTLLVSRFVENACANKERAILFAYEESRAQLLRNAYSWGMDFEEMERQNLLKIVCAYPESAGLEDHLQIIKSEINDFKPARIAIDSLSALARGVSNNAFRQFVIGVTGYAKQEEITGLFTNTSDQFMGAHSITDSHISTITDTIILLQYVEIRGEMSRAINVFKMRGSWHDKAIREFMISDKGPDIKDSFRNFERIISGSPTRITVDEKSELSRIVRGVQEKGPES

KaiC-EE (S. elongatus) = KaiC-EE (S. elongatus) (UniProt Q79PF4); assay: fluorescence polarisation

B1: full-length SasA (enzyme)
chain: MGESLSPQALAQPLLLQLFVDTRPLSQHIVQRVKNILAAVEATVPISLQVINVADQPQLVEYYRLVVTPALVKIGPGSRQVLSGIDLTDQLANQLPQWLVQQEAFFADREPPEVNIPFTELGQPETPALQQADAFFQLQQQYADLSERTKFLEQVIALVAHDLRNPLTAALLAVDTIQIRSQSFSVATAKEMQGLCSLFDQARSQLREIERMIAEILEATRHSGESLRINPREVVFEPLLQQVLEQLHERWRSKQQQLITDVPGDLPTLYADPDRLRQVLVNLLDNAIKYTPPGGTITIAALHRTSQKVQISISDTGSGIPRDQLSVIFKNLVRLSRDSSQEGYGIGLSVCQRIVQAHFGRIWVASELGQGSTFHFTMPVYRYTMPC
binding result (KaiC): binds
fold increase in affinity against SasAtrx (KaiC-EE (S. elongatus)): > 100 fold
